Measurements published in patent US8754193 (dated 2014).

Columns and labels:
TrkB [1] = target: T1, TrkB (human, UniProt Q16620); experiment: yeast
GAPDH = GAPDH (human, UniProt P04406); experiment: yeast
Streptavidin-PE = Streptavidin-PE (Streptomyces avidinii, UniProt P22629); experiment: yeast
TrkB [2] = target: T1, TrkB; experiment: yeast; remark: listed apart in the source
TrkB [3] = target: T1, TrkB; experiment: yeast; remark: listed apart in the source
TrkA/Fc = target: T2, TrkA/Fc (human, UniProt P04629); experiment: yeast
T2 chain: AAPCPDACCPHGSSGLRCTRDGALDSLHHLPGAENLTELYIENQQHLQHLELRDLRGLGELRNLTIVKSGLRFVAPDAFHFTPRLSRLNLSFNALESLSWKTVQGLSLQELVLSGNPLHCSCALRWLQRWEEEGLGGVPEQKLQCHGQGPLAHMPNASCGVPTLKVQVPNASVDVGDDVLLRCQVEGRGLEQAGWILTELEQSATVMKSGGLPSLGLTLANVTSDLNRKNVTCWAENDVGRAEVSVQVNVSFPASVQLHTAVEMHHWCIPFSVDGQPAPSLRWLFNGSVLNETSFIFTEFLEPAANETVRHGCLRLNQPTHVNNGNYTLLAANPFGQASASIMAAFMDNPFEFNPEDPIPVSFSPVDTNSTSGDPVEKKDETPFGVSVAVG

TrkC/Fc = TrkC/Fc (human, UniProt Q16288); experiment: yeast
Sequence of TrkC/Fc (Q16288 32-429): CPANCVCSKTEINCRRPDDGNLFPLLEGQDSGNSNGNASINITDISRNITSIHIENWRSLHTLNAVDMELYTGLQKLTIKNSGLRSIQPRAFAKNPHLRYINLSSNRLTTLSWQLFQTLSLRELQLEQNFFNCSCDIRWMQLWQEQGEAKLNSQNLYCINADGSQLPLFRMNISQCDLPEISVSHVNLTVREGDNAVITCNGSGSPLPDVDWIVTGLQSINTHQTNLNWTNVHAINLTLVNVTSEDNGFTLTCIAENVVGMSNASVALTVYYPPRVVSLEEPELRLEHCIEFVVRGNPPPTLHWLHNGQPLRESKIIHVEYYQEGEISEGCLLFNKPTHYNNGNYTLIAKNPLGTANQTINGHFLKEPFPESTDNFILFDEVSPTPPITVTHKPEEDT

TrkB [4] = target: T1, TrkB; experiment: competition, solution phase
TrkB [5] = target: T1, TrkB; experiment: FACS, soluble GFAb on TrkB-loaded beads

Sequence of Streptavidin-PE (P22629 37-163): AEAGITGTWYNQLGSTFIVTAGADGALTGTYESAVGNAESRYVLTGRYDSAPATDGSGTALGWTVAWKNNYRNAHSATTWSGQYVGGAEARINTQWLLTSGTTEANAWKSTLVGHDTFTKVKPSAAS
T1 sequence (Q16620 32-430): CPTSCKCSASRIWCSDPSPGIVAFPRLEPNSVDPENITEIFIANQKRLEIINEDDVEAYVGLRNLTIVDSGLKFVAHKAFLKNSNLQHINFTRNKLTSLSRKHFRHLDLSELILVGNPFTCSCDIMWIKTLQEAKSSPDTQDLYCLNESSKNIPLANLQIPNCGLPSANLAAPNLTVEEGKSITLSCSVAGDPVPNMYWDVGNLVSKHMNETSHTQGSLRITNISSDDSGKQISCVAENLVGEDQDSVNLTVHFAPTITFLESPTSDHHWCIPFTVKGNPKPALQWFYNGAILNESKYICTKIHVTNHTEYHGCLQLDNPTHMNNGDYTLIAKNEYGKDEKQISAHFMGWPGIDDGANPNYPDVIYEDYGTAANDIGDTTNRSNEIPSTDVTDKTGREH
Sequence of GAPDH (P04406 2-335): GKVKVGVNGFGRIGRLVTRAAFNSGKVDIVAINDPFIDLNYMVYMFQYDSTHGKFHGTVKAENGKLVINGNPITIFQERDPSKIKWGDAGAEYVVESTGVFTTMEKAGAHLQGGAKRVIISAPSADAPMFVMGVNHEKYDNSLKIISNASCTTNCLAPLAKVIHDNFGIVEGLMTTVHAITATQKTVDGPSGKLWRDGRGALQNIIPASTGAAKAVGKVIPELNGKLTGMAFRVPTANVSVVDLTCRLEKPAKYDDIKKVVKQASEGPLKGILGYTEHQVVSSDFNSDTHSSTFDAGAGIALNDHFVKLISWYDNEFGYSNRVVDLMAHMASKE

B1: 20-5-8 scaffold (designed binder)
chain 1: not shown
chain 2: LKQHFWSTPRTTS
chain 3: SRERDYRLDYTR
**Q.** Does B1 bind (TrkB [1])?
**A.** Result: no binding

B2: GFAb G4 (designed binder)
chain 1: not shown
chain 2: RGVSKSFLL
chain 3: QGITKGYK
**Q.** Which Kd (GAPDH) does the source give for B2 here?
**A.** The Kd was greater than 500 nM.

B3: GFAb 1.3 (designed binder)
chain 1: not shown
chain 2: AISRSFFST
chain 3: IRNLKYTN
modifications: conjugate with phycoerythrin
**Q.** B3 was tested. Which Kd (Streptavidin-PE) did it give?
**A.** The Kd was 70 nM.

B4: GFAb G8 (designed binder)
chain 1: not shown
chain 2: SHCLFRKCY
chain 3: ARSIRMKV
**Q.** B4 was tested. Which Kd (GAPDH) did it give?
**A.** Its Kd is greater than 500 nM.

B5: T3 172-173 loop only (designed binder)
chain 1: not shown
chain 2: LKQHFWSTPRTTS
chain 3: NAWVVHRR
**Q.** With B5 as the binder, how does the Kd (TrkB [2]) read?
**A.** Its Kd is 300 nM.

B6: T3 102-103 loop only (designed binder)
chain 1: not shown
chain 2: VINPFTVRS
chain 3: SRERDYRLDYTR
**Q.** With B6 as the binder, how does the Kd (TrkB [2]) read?
**A.** The Kd was 19 nM.

B7: GFAb T3 (designed binder)
chain 1: not shown
chain 2: VINPFTVRS
chain 3: NAWVVHRR
**Q.** How did the Kd (TrkB [3]) turn out when B7 was run?
**A.** Its Kd is 3.2 nM.

**Q.** And the Kd (TrkB [2])?
**A.** Its Kd is 2 nM.

**Q.** Does B7 bind (TrkA/Fc)?
**A.** Result: no binding

**Q.** Does B7 bind (TrkC/Fc)?
**A.** Result: no binding

**Q.** And the Kd (TrkB [4])?
**A.** Its Kd is roughly 10 nM.

**Q.** And the Kd (TrkB [5])?
**A.** Its Kd is 34 nM.

B8: GFAb G6 (designed binder)
chain 1: not shown
chain 2: RVSRFLLTT
chain 3: KSRIISSQ
**Q.** How did the Kd (GAPDH) turn out when B8 was run?
**A.** Its Kd is 18 nM.

B9: GFAb G7 (designed binder)
chain 1: not shown
chain 2: NVIYPFLYA
chain 3: RVTKTKHK
**Q.** With B9 as the binder, how does the Kd (GAPDH) read?
**A.** Its Kd is greater than 500 nM.

B10: GFAb 2.7 (designed binder)
chain 1: not shown
chain 2: VFSSLRYHV
chain 3: LRMDDTNP
modifications: conjugate with phycoerythrin
**Q.** B10 was tested. Which Kd (Streptavidin-PE) did it give?
**A.** Its Kd is 140 nM.

B11: GFAb 2.17 (designed binder)
chain 1: not shown
chain 2: KARMRLFLM
chain 3: EYGDTLLS
modifications: conjugate with phycoerythrin
**Q.** With B11 as the binder, how does the Kd (Streptavidin-PE) read?
**A.** The Kd was 110 nM.
